One data set has as its target T1, GST-AtGRP8-RQ (Arabidopsis thaliana, UniProt Q03251 1-169, R47Q).
T1 sequence: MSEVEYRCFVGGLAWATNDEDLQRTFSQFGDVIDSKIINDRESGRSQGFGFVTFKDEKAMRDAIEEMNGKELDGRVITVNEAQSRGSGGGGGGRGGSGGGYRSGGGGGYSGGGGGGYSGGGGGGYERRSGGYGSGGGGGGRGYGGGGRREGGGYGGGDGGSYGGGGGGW
Kind of data set: EMSA. On the technique in general: A gel shift assay detects complexes by their altered migration in electrophoresis.

The target in data set [1] is T2, GST-AtGRP8 (WT) (Arabidopsis thaliana, UniProt Q03251 1-169).
T2 sequence: T1 sequence with Q47R
Put plainly: EMSA.

Data set [2] addresses T2, GST-AtGRP8 (WT). Put plainly: EMSA. This is another data set of the same source.
For data set [3], the target named is T2, GST-AtGRP8 (WT). Put plainly: competition.

Positions count from the first letter of the chain named.

The term Kd denotes the constant that tells how readily two partners part at equilibrium. The low end stands for a tighter complex, the high end for a looser complex.

Consider GUUCAGUUUUGUUGGAUUGUUUUGCUGAUCUG (ssRNA) [7-intron_WT], for which the Kd with GST-AtGRP8-RQ worked out at 3590 nM; with GST-AtGRP8 (WT) [1], 426 nM.

With GUUUUUGGUUUAGAUUUGGUUUUGUGU (ssRNA) [8-UTR_WT], the dissociation constant Kd with GST-AtGRP8-RQ was determined as 1310 nM; with GST-AtGRP8 (WT) [1], 205 nM.

Take CUUCCACGAUUGUUUUUGCUGAUGUGU (ssRNA) [8-intron_WT]: the Kd with GST-AtGRP8-RQ was 22900 nM; in the data set with GST-AtGRP8 (WT) [1], 1640 nM.

On to CGUUUGGUUUACUUUUUUGAUGAAACA (ssRNA) [8-UTR_938], for which the binding signal with GST-AtGRP8 (WT) [2] is ~10 fold lower affinity than 8-UTR_WT.

Consider GUUCAAUUUUAUUAAAUUAUUUUACUGAUCUG (ssRNA) [7-intron_G6mut], for which, in the data set with GST-AtGRP8 (WT) [3], the binding result is recorded as “no binding”.

With AUUUUGUUCUGGUUCUGCUUUAGAUUUGAUCU (ssRNA) [7-UTR_WT], the Kd in the data set with GST-AtGRP8-RQ came out at 3220 nM; with GST-AtGRP8 (WT) [1] it was 318 nM.

These data come from paper PMC2602770.
